Laboratory results taken from the DeepSol protein solubility set.

Assay: soluble on expression in E. coli; label from the status in PepcDB or PDB records

| Sequence | soluble on expression in E. coli |
| --- | --- |
| MSLKSDNDVVITGVGIVTCHGVGSQAHVALLSGAAVPEPVVETEKFKPYPVHPMPEIDWSAQIAKRGDQRQMENWQRLGVFAAGLALDDAGLKENTEACATMDMIVAAGGGERDINVDTLIVDEALKRNDREKLLNEKLTTELRPTLFLAQLSNLMAGNISIVHKVTGSSRTFMGEEAAGISAVETAFHRIRSGESSHALVGGAFSAERPDMILLFEAIGAHAQGGWQPLWSRGDQDGGGMISGSLGAFLVLESRKHASERGARIYARIDAIEGDRGSRDDGKMEKRMERLLAPAKDSAATVVFSGASGYDEVTVREKDILEKVLPNSVIRGFGGVTGHGLEAQFPLGLALAALTLESGAKVPTFDAAAEKPMGEAATEAVVTTVGHVRGEGVAVLSRDVEGHHHHHH | soluble |
| MSLKSFFIGNIEIKVPVIQGGMGVGISLSGLASAVANEGGVGVISCAGLGLLYPKEKGTYTEKCISGLKEEIRKSRMKTKGIIGVNVMVALSNYADMVRTAINEKIDVIFSGAGLPLDLPSYLTTGSITKLVPIVSSSRAAKIICDKWQKNYNYLPDAIVVEGPKAGGHLGFKKEQLQDQNYALDVLIPEVVAIAASYKEQKHIPVIAAGGISTGEDIAHFMELGASGVQMGSIFVTTLECDASETFKEVYIHSKSEDVLIIESPVGMPGRAIDGEFIHSVNNGLEKPRKCSFHCIKTCDYTKSPYCIIKALYNAAKGNMKKGYAFAGSNAFLADKISSVKEVMNTLEREFFLATHKLVEGHHHHHH | not soluble |
| MSLKSISLLLLSLLMITPSCQKPKEVTNEYNIVPQPNQLVPKEGRFELSNKVRLVVPSDAPEVKKVADGFAEQLKQTAGISLTEAESVDGKPAISFVLQEGMPKEGYKLSVTPTLITVTASQPNGFFYGVQTIYQLLPPAVYGKELKKKADWSVPAVEIEDAPRFVHRGLMLDVCRHYAPIEYIYKFIDLLAMNKMNVFHWHLTDDQGWRIEIKKYPKLTEIGSKREKTLVDYYYVNYPQVFDGIEHGGYYTQEQIKEVVAYAASKYINVIPEIEMPGHALAALAAYPELSCDSTQTYKVSPTWGVFEQVFCPSETTFKFFEGVMDEVVELFPSEYIHIGGDECPKTAWKNSTFCQQLIRQLGLKDDATPSKVDGVKHSKEDKLQSYFVTRMEKYLNGKGRNIIGWDEILEGGLAPNATVLSWRGVEGGLNAAKAGHNAIMAPMPYAYLDFYQEDPEIAPTTIGGYTTLKKTYSYNPVPDNADELVKKHIIGMQGNLWREYMKTSDRVDYQAFPRAMAIAETGWTLDANKNWKSFCERMVTEFERLEVMDTKPCLNFFDVNINTHADENGPLMVLLETFYPNAEIRYTTDGSEPTYGSTLYEQPFVLEGNIDLKAAAFKDGKMLGKVTNKPLYGNLLAGKEGHHHHHH | soluble |
| MSLKTFLVCALEPSANLHLKEVLKAYKKDFGEFELHGIYDESLCKEFDLNSKPLYSSHEFSAMGFIEVLPLIFKAKKAIKELANLSFTQKINGILCIDSPAFNIPFAKALKKAGSKIPRIYYILPQVWAWKKGRIPIIESHFDILASILPFDNQFFNKSTYIGHPLLDEIKEFKNQEDINHTFSKKDDEKTIAFLPGSRRSEIRRLMPIFKELSQKFKGKKILCVPSFNLEKLEVYGDISEFKIESNTPKVLKKADFAFICSGTATLEAALVGTPFVLAYKAKAIDIFIAKLFVKLKHIGLANIFCDFAGKEALNPEFLQDKVNVLNLYEAYNKYDYKAFFAKVDFLKEYLQFGSAKNLAKILNEIEGHHHHHH | soluble |
| MSLKTGRSNIIAFIVPDQNPFFTEVLTEISHECQKHHLHVAVASSEENEDKQQDLIETFVSQNVSAIILVPVKSKFQMKREWLKIPIMTLDRELESTSLPSITVDNEEAAYIATKRVLESTCKEVGLLLANPNISTTIGRKNGYNKAISEFDLNVNPSLIHYSDQQLGTNAQIYSGYEATKTLLSKGIKGIVATNHLLLLGALQAIKESEKEIKKDVIIVGFDDSYWNEIYTPKLTVISQPVKEMGQVAAKMIYKLIKGKDVTSIKLSTKLIIRESCSFNEGHHHHHH | soluble |
| MSLKTIITNLKVYILKGPKEKRPHWVSNFIVPNANELLVILETNQGVEGFGLATSYTDMSPIVHVIESGISEKILGCNPLEPEMLYQSLFNLTASRLAYEKGWSREALIRVSAAVDIACWDIIGKISGLPLYQLFGGFRNKVPCYVTCAYYREGKDHAELKDEIQMLVDQGHQGFKAKVGGLSLAEDLERMELVREIIGPERDLMIDVNRAWDLKTAIEGARLLEPLKPTWLEEPVRWMDDRRELKILAQHTSIPLSGGESESTSYGCRTMIDEKAIQILQFDCTMFGGFTEGRKMTALCDLNHVDVAPHHDCFIHAPLVASSPAGRIVESFTDPERDPLQAELFENPPNIEKGWLTLNEAQGLGLTLSENALAKFGTQIIEGHHHHHH | soluble |
| MSLKTSRLPIAIQQAVMRRLREKLAQANLKLGRNYPEPKLSYTQRGTSAGTAWLESYEIRLNPVLLLENSEAFIEEVVPHELAHLLVWKHFGRVAPHGKEWKWMMESVLGVPARRTHQFELQSVRRNTFPYRCKCQEHQLTVRRHNRVVRGEAVYRCVHCGEQLVAKEGHHHHHH | not soluble |
| MSLKTTPLPILDLLEAYRPLFVEALGNRSRKERSKKERYIAKITAPCIDACPAHVDIPAYIEGVRDHLLGDSLAATRKSMPLAQVCGRVCPHPCESACRRGDLDEPISIMELKRLGADYEKERHGGFIHPYPPKPRRKDKRVAIIGAGPAGLSSAYYLALEGIMSDVFEALPVLGGEVSVGVPEYRMPIDRYYHDIEAIKSLGVSFWTNHFVSAKELDEMRQKYDAIILATGARISKKLGVKGEEESLGGYAPAIPWLDQINLATKFNLAALPDLRGKSVVCVGGGFTSMDVVRCAVRLGAKRIVMLYRRDEATLIQNTSKEEYHEALEEGVEFLFQCAVQEIKSCGGEIKALLVEEYEVVYEEGARKPSLRRIEREPLFLECDLLIPAVSQEVDRSFIPKEWNLESTSWGSFKTNGKDFSTTLRGVFAAGDCEKGPLTIVNAVGQGKRAASVVSRFLEDGEEGHHHHHH | soluble |
| MSLKTYALVMAGGRGERLWPLSREDRPKPFLPLFEGKTLLEATLERLAPLVPPERTLLAVRRDQEAVARPYADGIRLLLEPLGRDTAGAVLLGVAEALKEGAERLLVLPADHYVGDDEAYREALATMLEAAEEGFVVALGLRPTRPETEYGYIRLGPREGAWYRGEGFVEKPSYAEALEYIRKGYVWNGGVFAFAPATMAELFRRHLPSHHEALERLLAGASLEEVYAGLPKISIDYGVMEKAERVRVVLGRFPWDDVGNWRALERVFSQDPHENVVLGEGRHVALDTFGCVVYADRGVVATLGVSGLVVAKVGDEVLVVPKDWAREVREVVKRLEAQEEGHHHHHH | soluble |
| MSLKVFLKKGKEKKVKHFYPWVFRDEVEKIEGEGIVAELYDSEGNFLALGTYSPYSRIAFRVLSYEREEVNEEFFKRRLRESELLRRDIPSNAYRLAFSESDLLSGLIIDRYGDAFVIQVRSYPMEILKEKVLKTLVEEFNPAFVYERSDFKGRREEGLKEFKGLLYGKLENPLIIEEREFKFLVDVVEGLKTGFYLDQRDNREYVRNLVKEGDRVLDLFCYSGGFSVYCANRGAKVVGVDINKRAVELARENAKLNSVKADFVLGNAFDFIQESKEEWDLIIADPPAIAKTKKEKESILWAIWKLAYYSFQKLKKGGSLFICSCTYQISSEEMIRQVRLASTDVKRRIIIKSLNLQPIDHPYLPTFPESLYLKCLHAIVIDEGHHHHHH | soluble |
| MSLKYGIIGAGAMGYRYGVMLQENAGVDVDFIDTWGPNVAKVREQGGVDVARDHQNHHVVPINIYYPEEYQGHPDVWIVFKKQMQLADELKRDASLFHEDQYVFAAMNGMGHFEKIAQYFPENHIIGGTAMIATVLNGPGTVDFMGPKGSEAMHMSKYAGHIDTTTKQVMADFKAADLNPIWSDNFMGMCMSKVVFNAVTNSLCTMFEIQMGQFIEYPGVKDMATQMFNEAYDACERAGIKLIETRQEEIDSVETVSRAYKYHYPSMYQDFSKGRPTEVDYINGYIAKIGREHDYVCRVHEFVTHEVHLAEMMRQYRHPEIPVAEKEGHHHHHH | not soluble |
| MSLLERLNQDMKLYMKNREKDKLTVVRMVKASLQNEAIKLKKDSLTEDEELTVLSRELKQRKDSLQEFSNANRLDLVDKVQKELDILEVYLPEQLSEEELRTIVNETIAEVGASSKADMGKVMGAIMPKVKGKADGSLINKLVSSQLS | soluble |
| MSLLKQKILNRESGIITYGITPPKKNNTEEKIKEISQKHIERISGLDIDGLVIYDLQDEKERVSEERPFPFIETIDPQIYSENYLKDLKIPKIIYRCVGKYTPDEFRRLTRPVSGQDAFSVFVGAASRNQSVLLKLSDAYKIRQDVNPDLLLGGVAIPERHMKNTDEHLRIIDKINKGCKYFITQAVYNVEAAKDFLSDYYYYSKNNNLKMVPIIFTLTPCGSTKTLEFMKWLGISIPRWLENDLMNCEDILNKSVSLSKSIFNELMEFCLEKGIPIGCNIESVSVRKVEIEASIALAKDIKYIMKGEGHHHHHH | soluble |
| MSLLMTLVDEIKNRSSHVDAAIDELLPVTRPEELYKASRYLVDAGGKRLRPAVLILAAEAVGSNLRSVLPAAVAVELVHNFTLIHDDIMDRDDIRRGMPAVHVKWGEAGAILAGDTLYSKAFEILSKVENEPVRVLKCMDVLSKTCTEICEGQWLDMDFETRKKVTESEYLEMVEKKTSVLYAAAAKIGALLGGASDEVAEALSEYGRLIGIGFQMYDDVLDMTAPEEVLGKVRGSDLMEGKYTLIVINAFEKGVKLDIFGKGEATLEETEAAVRTLTECGSLDYVKNLAISYIEEGKEKLDVLRDCPEKTLLLQIADYMISREYEGHHHHHH | soluble |
| MSLLNIIRLLAESLPRISDGNENTDVWVNDMKFKMAYSFLNDDIDVIERELEQTVRSDYPLLSEAGLHLLQAGGKRIRPVFVLLSGMFGDYDINKIKYVAVTLEMIHMASLVHDDVIDDAELRRGKPTIKAKWDNRIAMYTGDYMLAGSLEMMTRINEPKAHRILSQTIVEVCLGEIEQIKDKYNMEQNLRTYLRRIKRKTALLIAVSCQLGAIASGADEKIHKALYWFGYYVGMSYQIIDDILDFTSTEEELGKPVGGDLLQGNVTLPVLYALKNPALKNQLKLINSETTQEQLEPIIEEIKKTDAIEASMAVSEMYLQKAFQKLNTLPRGRARSSLAAIAKYIGKRKFEGHHHHHH | not soluble |
| MSLLPRTTSVKPGEKFDVIIVGLGPAAYGAALYSARYMLKTLVIGETPGGQLTEAGIVDDYLGLIEIQASDMIKVFNKHIEKYEVPVLLDIVEKIENRGDEFVVKTKRKGEFKADSVILGIGVKRRKLGVPGEQEFAGRGISYCSVADAPLFKNRVVAVIGGGDSALEGAEILSSYSTKVYLIHRRDTFKAQPIYVETVKKKPNVEFVLNSVVKEIKGDKVVKQVVVENLKTGEIKELNVNGVFIEIGFDPPTDFAKSNGIETDTNGYIKVDEWMRTSVPGVFAAGDCTSAWLGFRQVITAVAQGAVAATSAYRYVTEKKGKK | soluble |
| MSLLTEVETYVLSIIPSGPLKAEIAQKLEDVFAGKNTDLEALMEWLKTRPILSPLTKGILGFVFTLTVPSERGLQRRRFVQNALNGNGDPNNMDRAVKLYKKLKREITFHGAKEVALSYSTGALASCMGLIYNRMGTVTTEVAFGLVCATCEQIADSQHRSHRQMATITNPLIRHENRMVLASTTAKAMEQMAGSSEQAAEAMEVANQARQMVQAMRTIGTHPNSSAGLRDNLLENLQAYQKRMGVQMQRFK | soluble |
| MSLMPDKKGYIIDIDGVIGKSVTPIPEGVEGVKKLKELGKKIIFVSNNSTRSRRILLERLRSFGLEVGEDEILVATYATARFIAREKPNAKVFTTGEEGLIEELRLAGLEIVDYDEAEYLVVGSNRKINFELMTKALRACLRGIRYIATNPDRIFPAEDGPIPGTGMIIGALYWMTGREPDVVVGKPSEVIMREALDILGLDAKDVAVVGDQIDVDVAAGKAIGAETVLVLTGVTTRENLDQMIERHGLKPDYVFNSLKDMVEALEGEGHHHHHH | soluble |
